# Source: article PMC12231599, “Elucidation of multiple high-resolution states of human MutSβ by cryo-EM reveals interplay between ATP/ADP binding and heteroduplex DNA recognition”
# B1: 61 bp homoduplex, biotinylated (SPR) (dsDNA)
# DNA 1: CTGAAGCTTAGCTTAGGATCATCGAGGATCAGCTCGGTGCAATTCAGCGGTACCCAATTC
# DNA 2: GAATTGGGTACCGCTGAATTGCACCGAGCTGATCCTCGATGATCCTAAGCTAAGCTTCAG
# B2: 61 bp (CAG)2 loop DNA, biotinylated (SPR) (dsDNA)
# DNA 1: CTGAAGCTTAGCTTAGGATCATCGAGGATCCAGCAGAGCTCGGTGCAATTCAGCGGTACCCAATTC
# DNA 2: B1 DNA 2
# B3: 70 bp (CAG)1 loop DNA (FRET) (dsDNA)
# DNA 1: CACACGTTCCGAGATATCCTAGCAAGTGATCAGCGTCTATGTAGCTCAAGAGTTCGACTCAGCCTACACCGAG
# DNA 2: CTCGGTGTAGGCTGAGTCGAACTCTTGAGCTACATAGACGATCACTTGCTAGGATATCTCGGAACGTGTG
# modifications: internal dye-dT
# B4: 70 bp (CAG)4 loop DNA (FRET) (dsDNA)
# DNA 1: CACACGTTCCGAGATATCCTAGCAAGTGATCAGCAGCAGCAGCGTCTATGTAGCTCAAGAGTTCGACTCAGCCTACACCGAG
# DNA 2: B3 DNA 2
# modifications: internal dye-dT
# B5: 70 bp (CAG)2 loop DNA (FRET) (dsDNA)
# DNA 1: CACACGTTCCGAGATATCCTAGCAAGTGATCAGCAGCGTCTATGTAGCTCAAGAGTTCGACTCAGCCTACACCGAG
# DNA 2: B3 DNA 2
# modifications: internal dye-dT
# Experiments:
# [1] = biological target: T1, MSH2 (MutSβ subunit);MSH3 (MutSβ subunit) (Homo sapiens;Homo sapiens, UniProt P43246;P20585 1-934;1-1137, |); experiment: SPR (steady state); no ATP; 5 mM Mg2+; SPR: 25 mM HEPES pH 7.5, 150 mM KCl, 5 mM MgCl2, 1 mM DTT, 0.05% Tween, 0.05% BSA, 25 C; FRET: 50 mM HEPES pH 7.0, 200 mM NaCl, 1 mM MgCl2, 1 mM DTT, 0.05% Tween-20, RT; settings: protein: recombinant;recombinant; tags: none;none; copies: 1;1; label: 5' biotin; blunt
# [2] = biological target: T1, MSH2 (MutSβ subunit);MSH3 (MutSβ …); experiment: SPR (kinetic, preferred by authors); 5 mM Mg2+; no ATP; SPR: 25 mM HEPES pH 7.5, 150 mM KCl, 5 mM MgCl2, 1 mM DTT, 0.05% Tween, 0.05% BSA, 25 C; FRET: 50 mM HEPES pH 7.0, 200 mM NaCl, 1 mM MgCl2, 1 mM DTT, 0.05% Tween-20, RT; settings: protein: recombinant;recombinant; tags: none;none; copies: 1;1; label: 5' biotin; blunt, (CAG)2 6-nt extrahelical loop in strand 1
# [3] = biological target: T1, MSH2 (MutSβ subunit);MSH3 (MutSβ …); experiment: SPR (steady state); 5 mM Mg2+; no ATP; SPR: 25 mM HEPES pH 7.5, 150 mM KCl, 5 mM MgCl2, 1 mM DTT, 0.05% Tween, 0.05% BSA, 25 C; FRET: 50 mM HEPES pH 7.0, 200 mM NaCl, 1 mM MgCl2, 1 mM DTT, 0.05% Tween-20, RT; settings: protein: recombinant;recombinant; tags: none;none; copies: 1;1; label: 5' biotin; blunt, (CAG)2 6-nt extrahelical loop in strand 1
# [4] = biological target: T1, MSH2 (MutSβ subunit);MSH3 (MutSβ …); experiment: FRET (DNA bending); no ATP; 100 nM protein; SPR: 25 mM HEPES pH 7.5, 150 mM KCl, 5 mM MgCl2, 1 mM DTT, 0.05% Tween, 0.05% BSA, 25 C; FRET: 50 mM HEPES pH 7.0, 200 mM NaCl, 1 mM MgCl2, 1 mM DTT, 0.05% Tween-20, RT; settings: protein: recombinant;recombinant, tags: none;none, copies: 1;1, label: Cy5 strand 1, Cy3 strand 2, 5' digoxigenin, blunt
binder,measurement,setting,value
B1,Kd,[1],3.32 nM
B2,Kd,[2],0.0672 nM
same,Kd,[3],0.265 nM
B3,binding result,[4]; 3-nt CAG loop in strand 1,binds
B4,binding result,[4]; 12-nt (CAG)4 loop in strand 1,binds
B5,binding result,[4]; 6-nt (CAG)2 loop in strand 1,binds
